Results from the Human Domainome abundance scans (Beltran et al. 2025).
± gives the uncertainty stated by the source.

B1: Serine/threonine-protein kinase A-Raf, residues 21 to 89; numbered along this chain, P10398 (parent)
chain: VKVYLPNKQRTVVTVRDGMSVYDSLDKALKVRGLNQDCCVVYRLIKGRKTVTAWDTAIAPLDGEELIVE
B2: Formin-binding protein 4, residues 593 to 636; numbered along this chain, Q8N3X1 (parent)
chain: EINATPKGWSCHWDRDHRRYFYVNEQSGESQWEFPDGEEEEEES

Variants of: B1
Test: abundance fitness (aPCA) (normalised: wild type 0, dead -1); higher = more abundant; growth selection in yeast, the domain comes from the species named
Settings: Homo sapiens

Row | Variant | abundance fitness
1 | E64S | -0.112 ± 0.08
2 | E64W | -0.215 ± 0.12
3 | E64T | -0.006 ± 0.13
4 | E64V | -0.259 ± 0.12
5 | V68A | -0.391 ± 0.41
6 | V68I | -0.127 ± 0.22
7 | I67F | 0.252 ± 0.13
8 | E65M | -0.34 ± 0.13
9 | E65T | -0.01 ± 0.097
10 | E65L | -0.349 ± 0.1
11 | E65C | -0.122 ± 0.14
12 | E65A | -0.044 ± 0.078
13 | E65Q | -0.184 ± 0.14
14 | E65S | -0.124 ± 0.092
15 | E65R | -0.385 ± 0.059
16 | E65K | -0.122 ± 0.071
17 | E65P | -0.26 ± 0.12
18 | E65Y | -0.305 ± 0.19
19 | E65W | -0.515 ± 0.18

Row | Variant | abundance fitness
20 | E65F | -0.607 ± 0.25
21 | E65I | -0.088 ± 0.45
22 | E65G | -0.294 ± 0.072
23 | E65V | -0.077 ± 0.063
24 | E65D | -0.136 ± 0.081
25 | E69Y | -0.809 ± 0.17
26 | E69M | -0.682 ± 0.21
27 | E69I | -0.81 ± 0.33
28 | E69D | -0.248 ± 0.079
29 | E69S | -0.463 ± 0.13
30 | E69P | -0.693 ± 0.17
31 | E69Q | -0.6 ± 0.17
32 | E69V | -0.43 ± 0.098
33 | E69L | -0.889 ± 0.18
34 | E69A | -0.497 ± 0.081
35 | E69R | -0.635 ± 0.19
36 | E69F | -0.884 ± 0.23
37 | E69N | -0.777 ± 0.21
38 | E69K | -0.6 ± 0.4

Variants of: B2
Test: as above
Settings: Homo sapiens

Row | Variant | abundance fitness
39 | D14E | -0.685 ± 0.13
40 | D14W | -1.4 ± 0.11
41 | D14A | -0.514 ± 0.072
42 | D14H | -0.289 ± 0.13
43 | D14C | -0.341 ± 0.13
44 | D14Y | -1.24 ± 0.15
45 | D14P | -1.12 ± 0.29
46 | D14I | -0.799 ± 0.17
47 | D14K | -0.928 ± 0.14
48 | D14G | -0.963 ± 0.068
49 | D14R | -0.843 ± 0.076
50 | D14T | -0.747 ± 0.13
51 | D14F | -0.75 ± 0.47
52 | D14V | -0.811 ± 0.079
53 | D14M | -0.682 ± 0.098
54 | D14S | -0.141 ± 0.077
55 | D14Q | -0.667 ± 0.15
56 | W13K | -0.545 ± 0.16
57 | W13S | -0.662 ± 0.079
58 | W13R | -0.738 ± 0.065
59 | W13L | -0.46 ± 0.083
60 | W13E | -0.456 ± 0.084
61 | W13F | -0.095 ± 0.18
62 | W13Y | -0.189 ± 0.25
63 | W13G | -0.544 ± 0.067
64 | W13I | -0.986 ± 0.31

Row | Variant | abundance fitness
65 | W13C | -0.497 ± 0.1
66 | W13Q | -0.546 ± 0.085
67 | W13P | -0.404 ± 0.074
68 | W13M | -0.542 ± 0.096
69 | W13A | -0.571 ± 0.068
70 | W13H | -0.499 ± 0.1
71 | W13D | -0.71 ± 0.14
72 | I2P | -0.094 ± 0.11
73 | I2Y | -0.02 ± 0.25
74 | I2V | -0.204 ± 0.095
75 | I2E | -0.173 ± 0.3
76 | I2R | -0.006 ± 0.091
77 | I2S | 0.142 ± 0.1
78 | I2L | -0.208 ± 0.11
79 | I2A | -0.518 ± 0.2
80 | I2W | -0.283 ± 0.1
81 | H17Y | -0.156 ± 0.095
82 | H17A | 0.037 ± 0.07
83 | H17R | 0.046 ± 0.058
84 | H17V | -0.208 ± 0.086
85 | H17F | -0.025 ± 0.35
86 | H17E | 0.088 ± 0.079
87 | H17M | -0.235 ± 0.19
88 | H17G | -0.274 ± 0.065
89 | H17W | -0.486 ± 0.095
90 | H17L | 0.007 ± 0.078

Row | Variant | abundance fitness
91 | H17S | -0.01 ± 0.081
92 | H17P | -1 ± 0.12
93 | H17Q | 0.186 ± 0.16
94 | H17K | 0.207 ± 0.1
95 | H17D | -0.201 ± 0.11
96 | W9L | -0.719 ± 0.083
97 | W9P | -0.512 ± 0.09
98 | W9G | -0.423 ± 0.058
99 | W9M | -0.591 ± 0.12
100 | W9R | -0.817 ± 0.071
101 | W9S | -0.368 ± 0.074
102 | W9D | -0.742 ± 0.18
103 | W9V | -0.629 ± 0.1
104 | W9E | -0.661 ± 0.16
105 | W9C | -0.56 ± 0.094
106 | W9K | -0.619 ± 0.2
107 | W9Y | -0.534 ± 0.16
108 | W9A | -0.568 ± 0.099
109 | W9Q | -0.498 ± 0.14
110 | V23F | -0.367 ± 0.14
111 | V23R | -0.039 ± 0.058
112 | V23L | -0.024 ± 0.082
113 | V23M | -0.331 ± 0.14
114 | V23P | -0.736 ± 0.11
115 | V23D | -0.513 ± 0.14
116 | V23K | 0.074 ± 0.11

Row | Variant | abundance fitness
117 | V23E | -0.26 ± 0.073
118 | V23C | -0.765 ± 0.21
119 | V23T | 0.324 ± 0.21
120 | V23G | -0.607 ± 0.059
121 | V23Q | -0.179 ± 0.093
122 | V23A | -0.347 ± 0.071
123 | P6S | -0.412 ± 0.39
124 | P6G | -0.587 ± 0.24
125 | T5V | 0.065 ± 0.17
126 | T5W | -0.19 ± 0.15
127 | T5A | -0.387 ± 0.26
128 | T5L | 0.213 ± 0.084
129 | T5K | 0.67 ± 0.33
130 | T5F | -0.306 ± 0.17
131 | T5H | -0.534 ± 0.36
132 | T5D | -0.463 ± 0.3
133 | T5Q | -0.358 ± 0.44
134 | T5G | -0.393 ± 0.097
135 | T5M | -0.054 ± 0.15
136 | T5C | 0.052 ± 0.15
137 | T5R | -0.345 ± 0.13
138 | T5S | -0.81 ± 0.33
139 | C11G | 0.037 ± 0.25
140 | C11V | -0.257 ± 0.2
141 | C11K | -0.025 ± 0.2
142 | A4K | -0.008 ± 0.17

Row | Variant | abundance fitness
143 | A4Q | -0.122 ± 0.2
144 | A4S | -0.306 ± 0.18
145 | A4N | 0.2 ± 0.12
146 | A4G | 0.033 ± 0.073
147 | A4R | -0.01 ± 0.07
148 | A4V | -0.132 ± 0.096
149 | A4L | 0.019 ± 0.1
150 | A4E | 0.081 ± 0.19
151 | A4T | -0.032 ± 0.16
152 | A4P | 0.086 ± 0.29
153 | A4M | 0.036 ± 0.12
154 | R19Y | -0.864 ± 0.21
155 | R19V | -0.491 ± 0.077
156 | R19N | -0.506 ± 0.25
157 | R19T | -0.621 ± 0.2
158 | R19P | -1.24 ± 0.3
159 | R19S | -0.391 ± 0.14
160 | R19K | -0.058 ± 0.088
161 | R19M | -0.21 ± 0.11
162 | R19E | -0.406 ± 0.11
163 | R19L | -0.423 ± 0.12
164 | R19Q | -0.092 ± 0.11
165 | R19C | -0.207 ± 0.3
166 | R19G | -0.485 ± 0.07
167 | N3Y | -0.062 ± 0.24
